Laboratory results published in paper PMC9481563 (2022).
Where two headings read alike, the source gives them in different places. Where no end group is shown, it is not given here. [ ]: non-standard residue; d: D form. pY = N[C@@H](Cc1ccc(OP(=O)(O)O)cc1)C(=O)O; pT = C[C@@H](OP(=O)(O)O)[C@H](N)C(=O)O; pS = N[C@@H](COP(=O)(O)O)C(=O)O

What was measured:
Experiment in all cases: FP
[1] = molecular target: T1, PIK3R1 (p85) N-terminal SH2 domain (321-433) (human, UniProt P27986 321-433)
[2] = molecular target: T2, PIK3R1 (p85) C-terminal SH2 domain (614-724) (human, UniProt P27986 614-724)
T2 sequence (P27986 614-724): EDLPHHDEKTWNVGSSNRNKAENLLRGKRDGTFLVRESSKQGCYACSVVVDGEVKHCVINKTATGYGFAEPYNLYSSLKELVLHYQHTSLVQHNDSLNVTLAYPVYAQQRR

[3] = molecular target: T2, PIK3R1 (p85) C-terminal SH2 domain …; remark: listed apart in the source
[4] = molecular target: T1, PIK3R1 (p85) N-terminal SH2 domain …; remark: listed apart in the source

T1 sequence (P27986 321-433): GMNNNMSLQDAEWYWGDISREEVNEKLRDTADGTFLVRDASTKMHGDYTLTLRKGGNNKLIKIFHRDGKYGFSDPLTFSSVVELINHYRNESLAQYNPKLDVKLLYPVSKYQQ

B1: p0IRS1, IRS1 peptide with phosphotyrosine only (pY632) (peptide)
peptide: GRKGSGD[pY]MPMSPKS
- Kd [1]: 184 nM
- Kd [2]: 8.1 nM

B2: p0CD28, CD28 peptide with phosphotyrosine only (pY191) (peptide)
peptide: RSRLLHSD[pY]MNMTPRR
- Kd [3]: 11 nM
- Kd [4]: 104 nM

B3: CF-ppIRS1, carboxyfluorescein-labelled pY632 + pS636 IRS1 peptide (peptide)
chain: GRKGSGDYMPMSPKS
modifications: phosphotyrosine at Y632; phosphoserine at S636; C-terminal lysine-ε-carboxyfluorescein label
- Kd [3]: 5.7 nM
- Kd [4]: 383 nM
- Kd [1]: 412 nM
- Kd [2]: 10.6 nM

B4: ppIRS1, IRS1 peptide dually phosphorylated (pY632 + pS636) (peptide)
peptide: GRKGSGD[pY]MPM[pS]PKS
- Kd [1]: 306 nM
- Kd [2]: 5.1 nM

B5: ppCD28, CD28 peptide dually phosphorylated (pY191 + pT195) (peptide)
peptide: RSRLLHSD[pY]MNM[pT]PRR
- Kd [3]: 22.9 nM
- Kd [4]: 285 nM
